Measured values reported in US11760795B2, “Monoclonal antibodies to growth and differentiation factor 15 (GDF-15), and uses thereof for treating cancer cachexia and cancer” (JULIUS-MAXIMILIANS-UNIVERSITÄT WÜRZBURG, priority 2014, dated 2023).

Legend:
[1] = Protein A elution at physiological pH and 10 fold concentration via spin columns, turbidity; type: physicochemical; conditions: TRIS Buffer at physiological pH, from 0.5 mg/ml
Method: FIG. 7: Improved solubility of the chimeric and the humanized antibody at physiological pH.
5 mg of antibody (B1-23, chimeric B1-23=“ChimB1-23”, H1L5) were loaded on Proteus™ protein A columns, eluted and collected in a TRIS Buffer at physiological pH. After elution, the quality of the purified antibodies was assessed by Coomassie Brilliant Blue gel analysis. The concentration of the eluted antibodies was measured photometrically as well as in a Bradford assay (Roti-Quant, Carl Roth, Karlsruhe, Germany). […] The antibodies were then 10 fold concentrated via spin columns (Centricon, MWCO 30). […] All concentrated eluates were then centrifuged for 5 min at 13000 rpm in order to precipitate antibody aggregates. The remaining amount of soluble antibodies was finally determined via Bradford assay from the supernatant.

human Interleukin-5 = human Interleukin-5 (Homo sapiens, UniProt P05113); assay: Surface plasmon resonance control flow cell with human Interleukin-5; type: binding; conditions: SPR, same coupling density
Chain of human Interleukin-5 (P05113 20-134): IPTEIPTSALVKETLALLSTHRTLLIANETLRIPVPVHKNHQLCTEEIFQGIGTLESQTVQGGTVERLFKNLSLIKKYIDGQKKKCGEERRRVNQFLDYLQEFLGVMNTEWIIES

[2] = test system: prostate cancer cell line LnCap; assay: Cancer cell proliferation, Alamar Blue metabolic assay; type: cell-based; conditions: after 72 hrs, compared with control group without antibody
Description: The strongest antiproliferative effect was observed using the prostate cancer cell line LnCap, which produces lots of GDF-15.

recombinant human GDF-15 = molecular target: T1, recombinant human GDF-15 (Homo sapiens, UniProt Q99988); assay: Mass spectrometric epitope excision; type: binding; conditions: trypsin 2 h at 37° C., MS/MS identification
T1 sequence (Q99988 with tags, fused parts or gaps): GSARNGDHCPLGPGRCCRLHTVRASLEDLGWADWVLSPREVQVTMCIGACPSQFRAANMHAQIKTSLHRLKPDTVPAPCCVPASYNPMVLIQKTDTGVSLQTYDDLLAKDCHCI
Method: The epitope of recombinant human GDF-15 which binds to the antibody B1-23 was identified by means of the epitope excision method and epitope extraction method (Suckau et al. Proc Nati Acad Sci USA. 1990 December; 87(24): 9848-9852; R. Stefanescu et al., Eur. J. Mass Spectrom. 13, 69-75 (2007)).
For preparation of the antibody column, the antibody B1-23 was added to NHS-activated 6-aminohexanoic acid coupled sepharose. The sepharose-coupled antibody B1-23 was then loaded into a 0.8 ml microcolumn and washed with blocking and washing buffers.
The immobilized antibody B1-23 on the affinity column was then incubated with recombinant GDF-15 for 2 h. The formed immune complex on the affinity column was then incubated with trypsin for 2 h at 37° C. […] The immobilized antibody itself is proteolytically stable. The resulting peptides of the digested GDF-15 protein, which were shielded by the antibody and thus protected from proteolytic cleavage, were eluted under acidic conditions (TFA, pH2), collected and identified by mass spectrometry.

[3] = test system: GDF-15 mediated JNK1/2-phosphorylation in immune cells; assay: JNK1/2 phosphorylation in immune cells (Western Blot); type: cell-based; conditions: 2 μg antibody, 10 ng/ml GDF-15, 5 minute preincubation
Method: FIG. 3: JNK1/2 Phosphorylation in Immune Cells. In order to quantify the Western Blot, the ratio of phosphorylated JNK1/2 to the total amount of JNK was calculated and normalized to the untreated control.
c) Treatment of immune cells with recombinant. GDF-15 led to the phosphorylation of JNK, a kinase, which is activated either by cytokines or by stress. Antagonization of 10 ng/ml GDF-15 with 2 μg mAb-B1-23 (5 minute preincubation at 37°) blocked the GDF-15 mediated JNK1/2-phosphorylation (FIG. 3).

[4] = molecular target: T2, human GDF-15 precursor on human cells (Homo sapiens, UniProt Q99988); assay: Staining experiments on human cells; type: cell-based
T2 construct: endogenous in cells
T2 sequence (Q99988 30-308 limits assumed): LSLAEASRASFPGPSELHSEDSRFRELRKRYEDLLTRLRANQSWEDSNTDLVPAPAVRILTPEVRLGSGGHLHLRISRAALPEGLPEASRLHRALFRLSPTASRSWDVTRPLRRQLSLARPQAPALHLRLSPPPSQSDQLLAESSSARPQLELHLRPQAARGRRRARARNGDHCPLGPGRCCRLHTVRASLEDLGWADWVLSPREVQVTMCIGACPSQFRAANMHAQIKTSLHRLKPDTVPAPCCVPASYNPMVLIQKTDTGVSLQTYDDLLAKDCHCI

[5] = test system: melanoma cell line UACC-257; assay: UACC-257 melanoma xenograft tumor growth in nude mice; type: in vivo, Balb/c^nu/nu nude mice; conditions: 25 mg/kg i.p. twice a week; 48 days; p<0.05
Method: FIG. 4: An anti-tumor effect of murine B1-23 in vivo. Balb/c^nu/nu nude mice were used in a xenograft setting with the melanoma cell line UACC-257. […] Significance was defined as p<0.05 as assessed by Wilcoxon's log-rank test.
To assess an anti-tumor effect of B1-23 in viva, Balb/c^nu/nu nude mice were used in a xenograft setting with the melanoma cell line UACC-257. The mice were treated either with the antibody B1-23 or with PBS. Each treatment cohort contained 10 Balb/c^nu/nu nude mice.
Prior to injection, the UACC-257 melanoma cells were grown in complete medium, excluding any contamination. […] Cells were then washed with PBS and counted. 1×10^7 viable cells were suspended in PBS.
The first injection/treatment was administered in 6 week old Balb/c^nu/nu nude mice. The inoculation area of the mice was cleaned with ethanol. The UACC 257 cells were mixed and drawn into a syringe without a needle, in order to avoid negative pressure on the tumor cells. […]
The intraperitoneal (i.p.) injection of either B1-23 (25 mg/kg body weight) or the same volume of PBS started immediately after the tumor cell inoculation (defined as day 1) and was administered twice a week. […] The tumor diameters were measured with a caliper and the tumor volume in mm^3 was calculated by the formula: Volume=(width)^2×length/2

[6] = test system: GDF-15 mediated AKT-phosphorylation in ovarian cancer cell line SK-OV-3; assay: Akt phosphorylation in SK-OV-3 cells (Western Blot); type: cell-based; conditions: 2 μg antibody preincubated 5 minutes with 10 ng/ml GDF-15 at 37° C.
Method: FIG. 2: Akt Phosphorylation in the Ovarian Carcinoma Cell Line SK-OV-3. In order to quantify the Western Blot for the ovarian carcinoma cell line SK-OV-3, the ratio of phosphorylated Akt to the total amount of Akt was calculated and normalized to the untreated control.
b) The treatment of the ovarian cancer cell line SK-OV-3 with recombinant GDF-15 led to the phosphorylation of AKT. AKT is a molecule, which is part of the PI3K-pathway and contributes to the activation and proliferation of cells. In this experiment SK-OV-3 cells were treated with 10 ng/ml recombinant GDF-15 for 10 min at 37° C., 5% CO2. 5 minutes preincubation of 2 μg mAb-B1-23 with 10 ng/ml GDF-15 at 37° C. blocked the GDF-15 mediated AKT-phosphorylation (FIG. 2).

B1: mAb-B1-23: murine IgG2a (kappa) monoclonal anti-human GDF-15 antibody produced by hybridoma cell line B1-23, DSM ACC3142 (antibody, V domains shown)
VH: QVKLQQSGPGILQSSQTLSLTCSFSGFSLSTSGMGVSWIRQPSGKGLEWLAHIYWDDDKRYNPTLKSRLTISKDPSRNQVFLKITSVDTADTATYYCARSSYGAMDYWGQGTSVTVSS
VL: DIVLTQSPKFMSTSVGDRVSVTCKASQNVGTNVAWFLQKPGQSPKALIYSASYRYSGVPDRFTGSGSGTDFTLTISNVQSEDLAEYFCQQYNNFPYTFGGGTKLEIKRTVA
**Q.** For B1, which “aggregation after 10 fold concentration” value [1] is on record?
**A.** presence of precipitates

**Q.** What about the “binding to human interleukin-5” value (human Interleukin-5) of the same molecule?
**A.** no binding

**Q.** What about the decrease of proliferation [2] of the same molecule?
**A.** 30%

**Q.** And the “positions of GDF-15 peptides forming the immune complex (epitope)” value (recombinant human GDF-15)?
**A.** 40-55 ([…]) and 94-114 ([…])

**Q.** And the “GDF-15 mediated JNK1/2-phosphorylation” value [3]?
**A.** blocked

**Q.** What about the “binding to the human GDF-15 precursor on human cells” value [4] of the same molecule?
**A.** capable of binding

**Q.** And the “tumor size compared to the PBS control group” value [5]?
**A.** significantly decreased

**Q.** What about the “GDF-15 mediated AKT-phosphorylation” value [6] of the same molecule?
**A.** blocked
